Experimental data reported in US20210063414A1, “METHODS FOR PREVENTING AND/OR TREATING BONE LOSS CONDITIONS BY MODULATING IRISIN” (Dana-Farber Cancer Institute, Inc., priority 2018, published 2021).

Key:
[1] = biological target: T1, MLO-Y4 cell surface proteins (Mus musculus, UniProt E9PW83); assay: Crosslinking/co-immunoprecipitation/mass spectrometry (TMT quantitative proteomics) to identify irisin receptors; type: binding; settings: co-precipitated protein Fam184a (E9PW83_MOUSE)
T1 construct: endogenous in cells; host or cells: MLO-Y4
T1 sequence (E9PW83 1-1143): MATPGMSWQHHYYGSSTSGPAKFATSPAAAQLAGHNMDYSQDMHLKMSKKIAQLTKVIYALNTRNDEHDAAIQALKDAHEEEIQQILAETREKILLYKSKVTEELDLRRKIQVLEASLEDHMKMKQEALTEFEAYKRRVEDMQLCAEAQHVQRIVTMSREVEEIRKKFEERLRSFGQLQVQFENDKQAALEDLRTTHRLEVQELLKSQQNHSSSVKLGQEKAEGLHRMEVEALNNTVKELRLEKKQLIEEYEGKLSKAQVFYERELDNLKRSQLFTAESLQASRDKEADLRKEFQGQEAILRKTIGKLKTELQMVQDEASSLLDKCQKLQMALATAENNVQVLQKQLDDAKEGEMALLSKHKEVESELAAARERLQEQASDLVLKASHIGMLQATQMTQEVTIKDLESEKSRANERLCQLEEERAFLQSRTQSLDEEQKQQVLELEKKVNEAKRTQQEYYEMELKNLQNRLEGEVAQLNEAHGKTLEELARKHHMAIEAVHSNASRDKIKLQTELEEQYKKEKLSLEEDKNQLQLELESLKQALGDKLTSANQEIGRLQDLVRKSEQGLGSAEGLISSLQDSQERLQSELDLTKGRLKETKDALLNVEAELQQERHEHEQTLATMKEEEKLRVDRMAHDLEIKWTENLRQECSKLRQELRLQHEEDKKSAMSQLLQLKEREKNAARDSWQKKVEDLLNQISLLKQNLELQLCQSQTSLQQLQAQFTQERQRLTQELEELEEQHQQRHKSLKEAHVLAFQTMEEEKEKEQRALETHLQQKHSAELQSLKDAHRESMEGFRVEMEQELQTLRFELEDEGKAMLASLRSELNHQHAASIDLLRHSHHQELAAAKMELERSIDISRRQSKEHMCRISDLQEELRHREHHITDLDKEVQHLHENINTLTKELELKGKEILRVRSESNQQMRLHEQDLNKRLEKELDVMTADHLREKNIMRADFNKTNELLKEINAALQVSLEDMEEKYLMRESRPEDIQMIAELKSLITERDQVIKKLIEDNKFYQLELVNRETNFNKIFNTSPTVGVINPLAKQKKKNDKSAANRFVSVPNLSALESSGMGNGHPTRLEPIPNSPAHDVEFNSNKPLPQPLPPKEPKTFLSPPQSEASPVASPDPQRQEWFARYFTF
Method in brief: (§1)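 Mouse MLO-Y4 cells were switched to serum-free FreeStyle medium for 4 h, chilled, then exposed to 10 nM His-tagged irisin (or adipsin as control) for 20 min. Cells were crosslinked with 1.5 mM DTSSP (30 min, ice), and bound proteins were pulled down on Ni-NTA and eluted with 250 mM imidazole. Eluates were separated by SDS-PAGE, trypsin-digested in gel, TMT 6-plex labelled and quantified by MS3-based LC-MS/MS on an Orbitrap Fusion Lumos.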

[2] = biological target: T2, MLO-Y4 cell surface proteins (Mus musculus, UniProt Q8VHN7); assay: as above; type: binding; settings: co-precipitated protein Gpr98 (GPR98_MOUSE)
T2 construct: endogenous in cells; host or cells: MLO-Y4
Method in brief: as §1

TMT signal-to-noise ratio [1]: 877.972
TMT signal-to-noise ratio [2]: 618.49
Substance: adipsin
